{
  "source": "paper PMC4369318",
  "target": "protective antigen (PA63 as LTx) in plasma or serum of subjects with inhalation anthrax (Bacillus anthracis (secreted during infection of rhesus macaques and humans))",
  "sequence (P13423 30-764)": "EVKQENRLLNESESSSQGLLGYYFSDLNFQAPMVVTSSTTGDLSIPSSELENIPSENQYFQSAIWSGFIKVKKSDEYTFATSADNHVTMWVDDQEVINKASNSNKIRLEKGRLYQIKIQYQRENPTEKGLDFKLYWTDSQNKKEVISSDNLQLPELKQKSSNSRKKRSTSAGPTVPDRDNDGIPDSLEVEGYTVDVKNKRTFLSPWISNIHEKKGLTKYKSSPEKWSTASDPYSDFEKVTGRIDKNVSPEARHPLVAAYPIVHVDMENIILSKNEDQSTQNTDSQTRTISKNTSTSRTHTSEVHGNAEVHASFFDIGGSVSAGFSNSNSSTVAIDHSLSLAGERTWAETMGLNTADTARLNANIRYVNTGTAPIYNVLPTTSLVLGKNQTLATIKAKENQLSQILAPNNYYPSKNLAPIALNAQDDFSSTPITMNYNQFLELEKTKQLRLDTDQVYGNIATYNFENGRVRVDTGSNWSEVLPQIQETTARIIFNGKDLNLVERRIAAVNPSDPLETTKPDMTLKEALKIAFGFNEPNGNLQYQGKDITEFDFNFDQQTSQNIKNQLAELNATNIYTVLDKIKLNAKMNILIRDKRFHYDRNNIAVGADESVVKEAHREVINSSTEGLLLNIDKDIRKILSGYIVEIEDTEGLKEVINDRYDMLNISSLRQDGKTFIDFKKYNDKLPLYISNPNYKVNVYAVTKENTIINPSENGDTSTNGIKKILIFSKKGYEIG",
  "test": "co-IP",
  "data": [
    {"substance": "lethal factor (LF) in plasma or serum of subjects with inhalation anthrax (from UniProt P15917 34-809) (enzyme)", "values": [
      {"measurement": "LTx as percent of total LF (animal 16N, terminal stage)", "value": 100, "unit": "%"},
      {"measurement": "LTx as percent of total LF (animal 89N, terminal stage)", "value": 60, "unit": "%"}
    ]}
  ]
}
